Reference: JP2005330292A (dated 2005)

B1: H鎖ヒト型化バージョンa/L鎖キメラ抗体 (antibody, V domains shown)
VH: QVQLLESGAVLARPGTSVKISCKASGFNIKDYYMHWVKQRPGQGLEWIGGNDPANGHSMYDPKFQGRAKLTAATSASIAYLEFSSLTNEDSAVYYCARDSGYAMDYWGQGTLVTVSS
VL: DIKMTQSPSSMYASLGERVTITCKASQDIKSFLSWYQQKPWKSPKTLIYYATSLADGVPSRFSGSGSGQDYSLTINNLESDDTATYYCLQHGESPYTFGGGTKLEIK
notes: Human IgG4 kappa (vector N5KG4P); also called a-ch
B2: H鎖ヒト型化バージョンa/L鎖ヒト型化バージョンa抗体 (antibody, V domains shown)
VH: QVQLLESGAVLARPGTSVKISCKASGFNIKDYYMHWVKQRPGQGLEWIGGNDPANGHSMYDPKFQGRAKLTAATSASIAYLEFSSLTNEDSAVYYCARDSGYAMDYWGQGTLVTVSS
VL: DIQMTQSPSSLSASVGDRVTITCKASQDIKSFLSWYQQKPGKAPKLLIYYATSLADGVPSRFSGSGSGTDFTLTISSLQPEDFATYYCLQHGESPYTFGGGTKVEIK
notes: Human IgG4 kappa (vector N5KG4P); also called a-a
B3: H鎖ヒト型化バージョンb/L鎖キメラ抗体 (antibody, V domains shown)
VH: QVQLLESGAVLARPGTSVKISCKASGFNIKDYYMHWVKQRPGQGLEWIGGNDPANGHSMYDPKFQGRVTITADTSTNTAYMELSSLRSEDTAIYYCARDSGYAMDYWGQGTLVTVSS
VL: DIKMTQSPSSMYASLGERVTITCKASQDIKSFLSWYQQKPWKSPKTLIYYATSLADGVPSRFSGSGSGQDYSLTINNLESDDTATYYCLQHGESPYTFGGGTKLEIK
notes: Human IgG4 kappa (vector N5KG4P); also called b-ch
B4: H鎖ヒト型化バージョンd/L鎖キメラ抗体 (antibody, V domains shown)
VH: QVQLLESGAVLARPGTSVKISCKASGFNIKDYYMHWVKQRPGQGLEWIGGNDPANGHSMYDPKFQGRVTITADESTSTAYMELSSLRSEDSAVYFCARDSGYAMDYWGQGTLVTVSS
VL: DIKMTQSPSSMYASLGERVTITCKASQDIKSFLSWYQQKPWKSPKTLIYYATSLADGVPSRFSGSGSGQDYSLTINNLESDDTATYYCLQHGESPYTFGGGTKLEIK
notes: Human IgG4 kappa (vector N5KG4P); also called d-ch
B5: H鎖ヒト型化バージョンe/L鎖キメラ抗体 (antibody, V domains shown)
VH: QVQLLESGAVLARPGTSVKISCKASGFNIKDYYMHWVKQRPGQGLEWIGGNDPANGHSMYDPKFQGRVSITADESTKIAYMELNSLRSEDTAVYFCARDSGYAMDYWGQGTLVTVSS
VL: DIKMTQSPSSMYASLGERVTITCKASQDIKSFLSWYQQKPWKSPKTLIYYATSLADGVPSRFSGSGSGQDYSLTINNLESDDTATYYCLQHGESPYTFGGGTKLEIK
notes: Human IgG4 kappa (vector N5KG4P); also called e-ch
B6: H鎖ヒト型化バージョンj/L鎖キメラ抗体 (antibody, V domains shown)
VH: QVQLLESGAVLARPGTSVKISCKASGFNIKDYYMHWVKQRPGQGLEWIGGNDPANGHSMYDPKFQGRVTFTADTSANTAYMELRSLRSADTAVYYCARDSGYAMDYWGQGTLVTVSS
VL: DIKMTQSPSSMYASLGERVTITCKASQDIKSFLSWYQQKPWKSPKTLIYYATSLADGVPSRFSGSGSGQDYSLTINNLESDDTATYYCLQHGESPYTFGGGTKLEIK
notes: Human IgG4 kappa (vector N5KG4P); also called j-ch
B7: H鎖ヒト型化バージョンi/L鎖キメラ抗体 (antibody, V domains shown)
VH: QVQLLESGAVLARPGTSVKISCKASGFNIKDYYMHWVKQRPGQGLEWIGGNDPANGHSMYDPKFQGRVTITADTSTSTVFMELSSLRSEDTAVYYCARDSGYAMDYWGQGTLVTVSS
VL: DIKMTQSPSSMYASLGERVTITCKASQDIKSFLSWYQQKPWKSPKTLIYYATSLADGVPSRFSGSGSGQDYSLTINNLESDDTATYYCLQHGESPYTFGGGTKLEIK
notes: Human IgG4 kappa (vector N5KG4P); also called i-ch
B8: H鎖キメラ/L鎖ヒト型化バージョンb抗体 (antibody, V domains shown)
VH: EVQLQQSGTNLVRPGALVKLSCKGSGFNIKDYYMHWVKQRPEQGLEWIGGNDPANGHSMYDPKFQGKASITADTSSNTAYLQLSSLTSEDTAVYFCARDSGYAMDYWGQGTSVTVSS
VL: DIQMTQSPSSLSASVGDRVTITCKASQDIKSFLSWYQQKPGKAPKLLIYYATSLADGVPSRFSGSGSGTDYTLTISSLQPEDFATYYCLQHGESPYTFGGGTKVEIK
notes: Human IgG4 kappa (vector N5KG4P); also called ch-b
B9: H鎖ヒト型化バージョンd/L鎖ヒト型化バージョンb抗体 (antibody, V domains shown)
VH: QVQLLESGAVLARPGTSVKISCKASGFNIKDYYMHWVKQRPGQGLEWIGGNDPANGHSMYDPKFQGRVTITADESTSTAYMELSSLRSEDSAVYFCARDSGYAMDYWGQGTLVTVSS
VL: DIQMTQSPSSLSASVGDRVTITCKASQDIKSFLSWYQQKPGKAPKLLIYYATSLADGVPSRFSGSGSGTDYTLTISSLQPEDFATYYCLQHGESPYTFGGGTKVEIK
notes: Human IgG4 kappa (vector N5KG4P); also called d-b
B10: H鎖ヒト型化バージョンb/L鎖ヒト型化バージョンb2抗体 (antibody, V domains shown)
VH: QVQLLESGAVLARPGTSVKISCKASGFNIKDYYMHWVKQRPGQGLEWIGGNDPANGHSMYDPKFQGRVTITADTSTNTAYMELSSLRSEDTAIYYCARDSGYAMDYWGQGTLVTVSS
VL: DIQMTQSPSSLSASVGDRVTITCKASQDIKSFLSWYQQKPEKAPKSLIYYATSLADGVPSRFSGSGSGTDYTLTISSLQPEDFATYYCLQHGESPYTFGGGTKVEIK
notes: Human IgG4 kappa (vector N5KG4P); also called b-b2
B11: H鎖キメラ/L鎖ヒト型化バージョンa抗体 (antibody, V domains shown)
VH: EVQLQQSGTNLVRPGALVKLSCKGSGFNIKDYYMHWVKQRPEQGLEWIGGNDPANGHSMYDPKFQGKASITADTSSNTAYLQLSSLTSEDTAVYFCARDSGYAMDYWGQGTSVTVSS
VL: DIQMTQSPSSLSASVGDRVTITCKASQDIKSFLSWYQQKPGKAPKLLIYYATSLADGVPSRFSGSGSGTDFTLTISSLQPEDFATYYCLQHGESPYTFGGGTKVEIK
notes: Human IgG4 kappa (vector N5KG4P); also called ch-a
B12: H鎖ヒト型化バージョンd3/L鎖ヒト型化バージョンb抗体 (antibody, V domains shown)
VH: QVQLLESGAVLARPGTSVKISCKASGFNIKDYYMHWVRQAPGQGLEWIGGNDPANGHSMYDPKFQGRVTITADESTSTAYMELSSLRSEDSAVYFCARDSGYAMDYWGQGTLVTVSS
VL: DIQMTQSPSSLSASVGDRVTITCKASQDIKSFLSWYQQKPGKAPKLLIYYATSLADGVPSRFSGSGSGTDYTLTISSLQPEDFATYYCLQHGESPYTFGGGTKVEIK
notes: Human IgG4 kappa (vector N5KG4P); also called d3-b
B13: H鎖ヒト型化バージョンg/L鎖ヒト型化バージョンb抗体 (antibody, V domains shown)
VH: QVQLLESGAVLARPGTSVKISCKASGFNIKDYYMHWVKQRPGQGLEWIGGNDPANGHSMYDPKFQGKATLTADESSSTAYMQLSSLRSEDSAVYSCARDSGYAMDYWGQGTLVTVSS
VL: DIQMTQSPSSLSASVGDRVTITCKASQDIKSFLSWYQQKPGKAPKLLIYYATSLADGVPSRFSGSGSGTDYTLTISSLQPEDFATYYCLQHGESPYTFGGGTKVEIK
notes: Human IgG4 kappa (vector N5KG4P); also called g-b
B14: H鎖ヒト型化バージョンb3/L鎖ヒト型化バージョンb抗体 (antibody, V domains shown)
VH: QVQLLESGAVLARPGTSVKISCKASGFNIKDYYMHWVRQAPGQGLEWIGGNDPANGHSMYDPKFQGRVTITADTSTNTAYMELSSLRSEDTAIYYCARDSGYAMDYWGQGTLVTVSS
VL: DIQMTQSPSSLSASVGDRVTITCKASQDIKSFLSWYQQKPGKAPKLLIYYATSLADGVPSRFSGSGSGTDYTLTISSLQPEDFATYYCLQHGESPYTFGGGTKVEIK
notes: Human IgG4 kappa (vector N5KG4P); also called b3-b
B15: H鎖キメラ/L鎖ヒト型化バージョンb2抗体 (antibody, V domains shown)
VH: EVQLQQSGTNLVRPGALVKLSCKGSGFNIKDYYMHWVKQRPEQGLEWIGGNDPANGHSMYDPKFQGKASITADTSSNTAYLQLSSLTSEDTAVYFCARDSGYAMDYWGQGTSVTVSS
VL: DIQMTQSPSSLSASVGDRVTITCKASQDIKSFLSWYQQKPEKAPKSLIYYATSLADGVPSRFSGSGSGTDYTLTISSLQPEDFATYYCLQHGESPYTFGGGTKVEIK
notes: Human IgG4 kappa (vector N5KG4P); also called ch-b2
B16: H鎖ヒト型化バージョンb/L鎖ヒト型化バージョンa抗体 (antibody, V domains shown)
VH: QVQLLESGAVLARPGTSVKISCKASGFNIKDYYMHWVKQRPGQGLEWIGGNDPANGHSMYDPKFQGRVTITADTSTNTAYMELSSLRSEDTAIYYCARDSGYAMDYWGQGTLVTVSS
VL: DIQMTQSPSSLSASVGDRVTITCKASQDIKSFLSWYQQKPGKAPKLLIYYATSLADGVPSRFSGSGSGTDFTLTISSLQPEDFATYYCLQHGESPYTFGGGTKVEIK
notes: Human IgG4 kappa (vector N5KG4P); also called b-a
B17: H鎖ヒト型化バージョンj/L鎖ヒト型化バージョンb抗体 (antibody, V domains shown)
VH: QVQLLESGAVLARPGTSVKISCKASGFNIKDYYMHWVKQRPGQGLEWIGGNDPANGHSMYDPKFQGRVTFTADTSANTAYMELRSLRSADTAVYYCARDSGYAMDYWGQGTLVTVSS
VL: DIQMTQSPSSLSASVGDRVTITCKASQDIKSFLSWYQQKPGKAPKLLIYYATSLADGVPSRFSGSGSGTDYTLTISSLQPEDFATYYCLQHGESPYTFGGGTKVEIK
notes: Human IgG4 kappa (vector N5KG4P); also called j-b
B18: H鎖ヒト型化バージョンi/L鎖ヒト型化バージョンb1抗体 (antibody, V domains shown)
VH: QVQLLESGAVLARPGTSVKISCKASGFNIKDYYMHWVKQRPGQGLEWIGGNDPANGHSMYDPKFQGRVTITADTSTSTVFMELSSLRSEDTAVYYCARDSGYAMDYWGQGTLVTVSS
VL: DIQMTQSPSSLSASVGDRVTITCKASQDIKSFLSWFQQKPGKSPKTLIYYATSLADGVPSRFSGSGSGTDYTLTISSLQPEDFATYYCLQHGESPYTFGGGTKVEIK
notes: Human IgG4 kappa (vector N5KG4P); also called i-b1
B19: H鎖ヒト型化バージョンb/L鎖ヒト型化バージョンc抗体 (antibody, V domains shown)
VH: QVQLLESGAVLARPGTSVKISCKASGFNIKDYYMHWVKQRPGQGLEWIGGNDPANGHSMYDPKFQGRVTITADTSTNTAYMELSSLRSEDTAIYYCARDSGYAMDYWGQGTLVTVSS
VL: DIQMTQSPSSLSASVGDRVTITCKASQDIKSFLSWYQQKPGKAPKLLIYYATSLADGVPSRFSGSGSGTDYTLTISSLQPEDIATYYCLQHGESPYTFGGGTKVEIK
notes: the construction of its expression plasmid is not described; also called b-c
B20: H鎖キメラ/L鎖ヒト型化バージョンc抗体 (antibody, V domains shown)
VH: EVQLQQSGTNLVRPGALVKLSCKGSGFNIKDYYMHWVKQRPEQGLEWIGGNDPANGHSMYDPKFQGKASITADTSSNTAYLQLSSLTSEDTAVYFCARDSGYAMDYWGQGTSVTVSS
VL: DIQMTQSPSSLSASVGDRVTITCKASQDIKSFLSWYQQKPGKAPKLLIYYATSLADGVPSRFSGSGSGTDYTLTISSLQPEDIATYYCLQHGESPYTFGGGTKVEIK
notes: Human IgG4 kappa (vector N5KG4P); also called ch-c
B21: H鎖キメラ/L鎖ヒト型化バージョンb1抗体 (antibody, V domains shown)
VH: EVQLQQSGTNLVRPGALVKLSCKGSGFNIKDYYMHWVKQRPEQGLEWIGGNDPANGHSMYDPKFQGKASITADTSSNTAYLQLSSLTSEDTAVYFCARDSGYAMDYWGQGTSVTVSS
VL: DIQMTQSPSSLSASVGDRVTITCKASQDIKSFLSWFQQKPGKSPKTLIYYATSLADGVPSRFSGSGSGTDYTLTISSLQPEDFATYYCLQHGESPYTFGGGTKVEIK
notes: Human IgG4 kappa (vector N5KG4P); also called ch-b1

molecular target: T1, ヒト組織因子(TF)(ヒト膀胱癌細胞J82上に発現) (human, UniProt P13726 33-295); test: cell ELISA on fixed J82 cells
T1 construct: whole, on cells; Target of the cell ELISA; also called ヒトTF; 抗原

Binding result, binds:
B1
B2
B3
B4
B5
B6
B7
B8
B9
B10
B11
B12
B13
B14
B15
B16
B17
B18
B19
B20
B21
